According to PMC11805834 (Applied Microbiology and Biotechnology, 2025):

Molecular target: T1, mouse CD80-Fc fusion protein (mouse, UniProt Q00609 38-246)
T1 sequence: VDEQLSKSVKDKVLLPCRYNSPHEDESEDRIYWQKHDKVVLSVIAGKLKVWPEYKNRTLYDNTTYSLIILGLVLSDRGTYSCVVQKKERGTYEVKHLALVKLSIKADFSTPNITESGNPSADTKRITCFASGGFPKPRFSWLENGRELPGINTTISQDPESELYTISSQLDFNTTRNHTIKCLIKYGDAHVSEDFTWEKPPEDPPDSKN
Assay: SPR

B1: Mouse CD28 protein with His tag (receptor)
chain: NKILVKQSPLLVVDSNEVSLSCRYSYNLLAKEFRASLYKGVNSDVEVCVGNGNFTYQPQFRSNAEFNCDGDFDNETVTFRLWNLHVNHTDIYFCKIEFMYPPPYLDNERSNGTIIHIKEKHLCHTQSSPKL
- Kd: 2490 nM
